From article PMC4057743, “Arabidopsis ABA Receptor RCAR1/PYL9 Interacts with an R2R3-Type MYB Transcription Factor, AtMYB44” (International Journal of Molecular Sciences, 2014)

Biological target: T1, His-ABI1 (Arabidopsis, UniProt P49597 1-434)
T1 construct: ABI1, type 2C protein phosphatase (PP2C), Arabidopsis; ORF subcloned into pET28a via BamH I and Hind III sites; source: Escherichia coli, purified
T1 sequence (looked up): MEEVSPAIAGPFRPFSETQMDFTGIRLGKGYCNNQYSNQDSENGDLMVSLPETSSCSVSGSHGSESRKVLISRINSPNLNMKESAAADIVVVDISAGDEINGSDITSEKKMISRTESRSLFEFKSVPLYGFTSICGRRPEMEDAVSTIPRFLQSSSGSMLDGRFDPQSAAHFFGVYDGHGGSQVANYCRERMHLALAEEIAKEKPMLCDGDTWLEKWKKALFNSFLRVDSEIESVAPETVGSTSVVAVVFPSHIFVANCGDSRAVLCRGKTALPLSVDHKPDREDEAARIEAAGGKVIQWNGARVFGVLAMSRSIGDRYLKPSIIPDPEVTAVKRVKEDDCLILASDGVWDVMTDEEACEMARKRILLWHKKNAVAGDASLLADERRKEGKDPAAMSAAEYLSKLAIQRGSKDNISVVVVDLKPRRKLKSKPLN
Test: pull-down; competitive: 5 μg His-RCAR1/PYL9 with 0, 5 or 25 μg His-ABI1 or 25 μg His protein on immobilized GST-AtMYB44 (5 μg); 50 mM Tris-HCl pH 7.5, 100 mM NaCl, 1 mM EDTA, 0.05% β-mercaptoethanol, 0.2% Triton X-100, 10 mM MgCl2; 4 °C, 2 h; 10 μM ABA when indicated; anti-His blot
Conditions: both partners purified

binding result: binds
B1: His-RCAR1/PYL9 (receptor, Arabidopsis, UniProt Q84MC7 1-187, looked up)
chain: MMDGVEGGTAMYGGLETVQYVRTHHQHLCRENQCTSALVKHIKAPLHLVWSLVRRFDQPQKYKPFVSRCTVIGDPEIGSLREVNVKSGLPATTSTERLELLDDEEHILGIKIIGGDHRLKNYSSILTVHPEIIEGRAGTMVIESFVVDVPQGNTKDETCYFVEALIRCNLKSLADVSERLASQDITQ
notes: ABA receptor RCAR1/PYL9, Arabidopsis; ORF subcloned into pET28a via EcoR I and Xho I sites; source: Escherichia coli, purified
